Measured values published in US20220064329A1 (Novo Nordisk, published 2022).
Residue numbers refer to the chain shown, from its start. Names may count otherwise.

T1: recombinant human activated Factor VII (FVIIa) (human, UniProt P08709 61-212; P08709 213-466, ten glutamate residues of the Gla domain may be gamma-carboxylated)
T1 construct: chains tethered by a disulfide bond; also called Factor VIIa; rFVIIa
T1 sequence 1: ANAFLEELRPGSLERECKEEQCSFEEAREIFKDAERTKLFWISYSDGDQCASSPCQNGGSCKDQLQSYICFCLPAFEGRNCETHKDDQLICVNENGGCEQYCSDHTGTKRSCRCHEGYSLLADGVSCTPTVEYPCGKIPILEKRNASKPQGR
T1 sequence 2: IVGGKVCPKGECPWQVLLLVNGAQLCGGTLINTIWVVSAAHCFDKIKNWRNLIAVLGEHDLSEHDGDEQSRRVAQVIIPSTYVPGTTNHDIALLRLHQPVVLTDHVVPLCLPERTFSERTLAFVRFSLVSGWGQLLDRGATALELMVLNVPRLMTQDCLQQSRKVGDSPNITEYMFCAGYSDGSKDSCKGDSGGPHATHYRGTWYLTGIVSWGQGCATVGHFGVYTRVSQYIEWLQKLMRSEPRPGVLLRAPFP

B1: VH SEQ ID NO 522 / VL SEQ ID NO 446 (antibody, IgG4, V domains shown)
VH: QVQLQESGPGLVEPSQTLSLTCTVSGYSISSDSAWSWIRQPPGKGLEWIGYIQYSGSTNYNPSLKSRVTISRDTSKNQFSLKLSSVTAADTAVYYCARSVNYYGNSFAVGPWGQGTLVTVSS
VL: EIVLTQSPATLSLSPGERATLSCRASQGVSDYLAWYQQKPGQAPRLLIKYTSQPATGIPARFSGSGSGTDFTLTISSLEPEDFAVYYCQNGHSFPLTFGQGTKLEIK
notes: humanized 11F2; IgG4 S228P/kappa
B2: VH SEQ ID NO 522 / VL SEQ ID NO 454 (antibody, IgG4, V domains shown)
VH: B1 VH
VL: B1 VL with A34H, Q42E, T51A
notes: as for B1
B3: VH SEQ ID NO 522 / VL SEQ ID NO 462 (antibody, IgG4, V domains shown)
VH: B1 VH
VL: B1 VL with A34H, T51A, Q100A
notes: as for B1
B4: VH SEQ ID NO 522 / VL SEQ ID NO 470 (antibody, IgG4, V domains shown)
VH: B1 VH
VL: B1 VL with A34H, T51A
notes: as for B1
B5: VH SEQ ID NO 522 / VL SEQ ID NO 478 (antibody, IgG4, V domains shown)
VH: B1 VH
VL: B1 VL with A34H, T51A, N90Q
notes: as for B1
B6: VH SEQ ID NO 522 / VL SEQ ID NO 486 (antibody, IgG4, V domains shown)
VH: B1 VH
VL: B1 VL with A34H, T51A, A84G
notes: as for B1
B7: VH SEQ ID NO 522 / VL SEQ ID NO 494 (antibody, IgG4, V domains shown)
VH: B1 VH
VL: B1 VL with A34H, T51A, F83V
notes: as for B1
B8: VH SEQ ID NO 522 / VL SEQ ID NO 502 (antibody, IgG4, V domains shown)
VH: B1 VH
VL: B1 VL with A34H
notes: as for B1
B9: VH SEQ ID NO 530 / VL SEQ ID NO 310 (antibody, IgG4, V domains shown)
VH: B1 VH with P111Y
VL: B1 VL with V29I, T51A
notes: as for B1
B10: VH SEQ ID NO 530 / VL SEQ ID NO 318 (antibody, IgG4, V domains shown)
VH: B1 VH with P111Y
VL: B1 VL with V29I, A34H, Q42E
notes: as for B1
B11: VH SEQ ID NO 530 / VL SEQ ID NO 326 (antibody, IgG4, V domains shown)
VH: B1 VH with P111Y
VL: B1 VL with V29I, A34H, Q42E, A84G, Q100A, I106L
notes: as for B1
B12: VH SEQ ID NO 530 / VL SEQ ID NO 334 (antibody, IgG4, V domains shown)
VH: B1 VH with P111Y
VL: B1 VL with V29I, A34H, T51A
notes: as for B1
B13: VH SEQ ID NO 530 / VL SEQ ID NO 342 (antibody, IgG4, V domains shown)
VH: B1 VH with P111Y
VL: B1 VL with V29I, A34H, T69R, Q100A, I106L
notes: as for B1
B14: VH SEQ ID NO 530 / VL SEQ ID NO 350 (antibody, IgG4, V domains shown)
VH: B1 VH with P111Y
VL: B1 VL with V29I, A34H, Q100A, I106L
notes: as for B1
B15: VH SEQ ID NO 530 / VL SEQ ID NO 358 (antibody, IgG4, V domains shown)
VH: B1 VH with P111Y
VL: B1 VL with V29I, A34H
notes: as for B1
B16: VH SEQ ID NO 530 / VL SEQ ID NO 366 (antibody, IgG4, V domains shown)
VH: B1 VH with P111Y
VL: B1 VL with V29L, Q42E, T51A
notes: as for B1
B17: VH SEQ ID NO 530 / VL SEQ ID NO 374 (antibody, IgG4, V domains shown)
VH: B1 VH with P111Y
VL: B1 VL with V29L
notes: as for B1
B18: VH SEQ ID NO 530 / VL SEQ ID NO 382 (antibody, IgG4, V domains shown)
VH: B1 VH with P111Y
VL: B1 VL with V29L, A34H, Q42E, T51A
notes: as for B1
B19: VH SEQ ID NO 530 / VL SEQ ID NO 390 (antibody, IgG4, V domains shown)
VH: B1 VH with P111Y
VL: B1 VL with Q42E, T51A
notes: as for B1
B20: VH SEQ ID NO 530 / VL SEQ ID NO 398 (antibody, IgG4, V domains shown)
VH: B1 VH with P111Y
VL: B1 VL with Q42E
notes: as for B1
B21: VH SEQ ID NO 530 / VL SEQ ID NO 406 (antibody, IgG4, V domains shown)
VH: B1 VH with P111Y
VL: B1 VL with T51A, Q100A
notes: as for B1
B22: VH SEQ ID NO 530 / VL SEQ ID NO 414 (antibody, IgG4, V domains shown)
VH: B1 VH with P111Y
VL: B1 VL with T51A
notes: as for B1
B23: VH SEQ ID NO 530 / VL SEQ ID NO 422 (antibody, IgG4, V domains shown)
VH: B1 VH with P111Y
VL: B1 VL with T51A, N90Q
notes: as for B1
B24: VH SEQ ID NO 530 / VL SEQ ID NO 430 (antibody, IgG4, V domains shown)
VH: B1 VH with P111Y
VL: B1 VL with T51A, A84G
notes: as for B1
B25: VH SEQ ID NO 530 / VL SEQ ID NO 438 (antibody, IgG4, V domains shown)
VH: B1 VH with P111Y
VL: B1 VL with T51A, F83V
notes: as for B1
B26: VH SEQ ID NO 530 / VL SEQ ID NO 446 (antibody, IgG4, V domains shown)
VH: B1 VH with P111Y
VL: B1 VL
notes: as for B1
B27: VH SEQ ID NO 530 / VL SEQ ID NO 454 (antibody, IgG4, V domains shown)
VH: B1 VH with P111Y
VL: B1 VL with A34H, Q42E, T51A
notes: as for B1
B28: VH SEQ ID NO 530 / VL SEQ ID NO 462 (antibody, IgG4, V domains shown)
VH: B1 VH with P111Y
VL: B1 VL with A34H, T51A, Q100A
notes: as for B1
B29: VH SEQ ID NO 530 / VL SEQ ID NO 470 (antibody, IgG4, V domains shown)
VH: B1 VH with P111Y
VL: B1 VL with A34H, T51A
notes: as for B1
B30: VH SEQ ID NO 530 / VL SEQ ID NO 478 (antibody, IgG4, V domains shown)
VH: B1 VH with P111Y
VL: B1 VL with A34H, T51A, N90Q
notes: as for B1
B31: VH SEQ ID NO 530 / VL SEQ ID NO 486 (antibody, IgG4, V domains shown)
VH: B1 VH with P111Y
VL: B1 VL with A34H, T51A, A84G
notes: as for B1
B32: VH SEQ ID NO 530 / VL SEQ ID NO 494 (antibody, IgG4, V domains shown)
VH: B1 VH with P111Y
VL: B1 VL with A34H, T51A, F83V
notes: as for B1
B33: VH SEQ ID NO 530 / VL SEQ ID NO 502 (antibody, IgG4, V domains shown)
VH: B1 VH with P111Y
VL: B1 VL with A34H
notes: as for B1
B34: VH SEQ ID NO 538 / VL SEQ ID NO 310 (antibody, IgG4, V domains shown)
VH: B1 VH with S30T, G45K, P111Y
VL: B1 VL with V29I, T51A
notes: as for B1
B35: VH SEQ ID NO 538 / VL SEQ ID NO 318 (antibody, IgG4, V domains shown)
VH: B1 VH with S30T, G45K, P111Y
VL: B1 VL with V29I, A34H, Q42E
notes: as for B1
B36: VH SEQ ID NO 538 / VL SEQ ID NO 326 (antibody, IgG4, V domains shown)
VH: B1 VH with S30T, G45K, P111Y
VL: B1 VL with V29I, A34H, Q42E, A84G, Q100A, I106L
notes: as for B1
B37: VH SEQ ID NO 538 / VL SEQ ID NO 334 (antibody, IgG4, V domains shown)
VH: B1 VH with S30T, G45K, P111Y
VL: B1 VL with V29I, A34H, T51A
notes: as for B1
B38: VH SEQ ID NO 538 / VL SEQ ID NO 342 (antibody, IgG4, V domains shown)
VH: B1 VH with S30T, G45K, P111Y
VL: B1 VL with V29I, A34H, T69R, Q100A, I106L
notes: as for B1
B39: VH SEQ ID NO 538 / VL SEQ ID NO 350 (antibody, IgG4, V domains shown)
VH: B1 VH with S30T, G45K, P111Y
VL: B1 VL with V29I, A34H, Q100A, I106L
notes: as for B1
B40: VH SEQ ID NO 538 / VL SEQ ID NO 358 (antibody, IgG4, V domains shown)
VH: B1 VH with S30T, G45K, P111Y
VL: B1 VL with V29I, A34H
notes: as for B1
B41: VH SEQ ID NO 538 / VL SEQ ID NO 366 (antibody, IgG4, V domains shown)
VH: B1 VH with S30T, G45K, P111Y
VL: B1 VL with V29L, Q42E, T51A
notes: as for B1
B42: VH SEQ ID NO 538 / VL SEQ ID NO 374 (antibody, IgG4, V domains shown)
VH: B1 VH with S30T, G45K, P111Y
VL: B1 VL with V29L
notes: as for B1
B43: VH SEQ ID NO 538 / VL SEQ ID NO 382 (antibody, IgG4, V domains shown)
VH: B1 VH with S30T, G45K, P111Y
VL: B1 VL with V29L, A34H, Q42E, T51A
notes: as for B1
B44: VH SEQ ID NO 538 / VL SEQ ID NO 390 (antibody, IgG4, V domains shown)
VH: B1 VH with S30T, G45K, P111Y
VL: B1 VL with Q42E, T51A
notes: as for B1
B45: VH SEQ ID NO 538 / VL SEQ ID NO 398 (antibody, IgG4, V domains shown)
VH: B1 VH with S30T, G45K, P111Y
VL: B1 VL with Q42E
notes: as for B1

Target: T1, recombinant human activated Factor VII …
Experiment: BLI (Fortebio)

| Binder | Kd |
| --- | --- |
| B1 | 170 nM |
| B2 | 1 nM |
| B3 | 1.2 nM |
| B4 | 0.96 nM |
| B5 | 1.6 nM |
| B6 | 1.5 nM |
| B7 | 1.7 nM |
| B8 | 1.4 nM |
| B9 | 2.5 nM |
| B10 | 1.2 nM |
| B11 | 1.1 nM |
| B12 | 1.2 nM |
| B13 | 1.2 nM |
| B14 | 0.96 nM |
| B15 | 1 nM |
| B16 | 3.2 nM |
| B17 | 4.2 nM |
| B18 | 1.1 nM |
| B19 | 4.1 nM |
| B20 | 7.1 nM |
| B21 | 4.3 nM |
| B22 | 4.5 nM |
| B23 | 26 nM |

| Binder | Kd |
| --- | --- |
| B24 | 4.9 nM |
| B25 | 4.6 nM |
| B26 | 7.9 nM |
| B27 | 1.1 nM |
| B28 | 1 nM |
| B29 | 0.96 nM |
| B30 | 1.4 nM |
| B31 | 0.99 nM |
| B32 | 1 nM |
| B33 | 0.94 nM |
| B34 | 2.5 nM |
| B35 | 0.64 nM |
| B36 | 0.58 nM |
| B37 | 0.97 nM |
| B38 | 1.2 nM |
| B39 | 1 nM |
| B40 | 0.89 nM |
| B41 | 6.2 nM |
| B42 | 7.4 nM |
| B43 | 1.2 nM |
| B44 | 7 nM |
| B45 | 11 nM |
